Our source for the relative binding ratio and IC50 values is patent publication US20040048790A1.

One test concerns the target HLA-A*2401 (human). In words: competition vs 125I-labelled probe peptide, purified HLA, gel filtration. The note with it: scale: ratio to standard peptide. (In gel filtration, larger molecules generally elute earlier.)
The next test concerns the target HLA-A*0206 (human). Briefly: 125I-probe peptide inhibition, purified HLA.
In the next test the target is HLA-A*6801 (human). In words: 125I-probe peptide inhibition, purified HLA.
In test [1] the target is HLA-A*0301 (human). Briefly: competition with 125I-labelled probe peptide for purified HLA-A*0301.
For test [2], the target named is HLA-A*0301 (human). In words: 125I-probe peptide inhibition, purified HLA.
A further test concerns the target HLA-A*0201 (human). Briefly: 125I-probe peptide inhibition, purified HLA.

With “p53 peptide, position 337, 8 amino acids”, the relative binding ratio with HLA-A*2401 (human) was -0.0004.

With “p53 peptide, position 43, 11 amino acids”, the relative binding ratio with HLA-A*2401 (human) was 0.0023.

As to “p53 peptide, position 106, 9 amino acids”, the relative binding ratio with HLA-A*2401 (human) amounted to 0.02.

In general, IC50 refers to the concentration that gives 50% inhibition. Regarding p53.65 (10-mer) (peptide), the concentration for half-maximal inhibition (IC50) with HLA-A*0206 (human) was found to be 841 nM.

For “p53 peptide, position 340, 9 amino acids”, the relative binding ratio in the test with HLA-A*2401 (human) was determined as 0.0001.

Consider p53 peptide, position 18, 8 amino acids, for which the relative binding ratio with HLA-A*2401 (human) turned out to be 0.0016.

For “p53 peptide, position 106, 8 amino acids”, the relative binding ratio in the test with HLA-A*2401 (human) turned out to be 0.028.

Regarding “p53 peptide, position 102, 8 amino acids”, in the test with HLA-A*2401 (human), the relative binding ratio came out at 0.11.

Consider “p53 peptide, position 22, 11 amino acids”, for which the relative binding ratio with HLA-A*2401 (human) is -0.0003.

In the case of “p53 peptide, position 125, 10 amino acids”, the relative binding ratio with HLA-A*2401 (human) is 5.1.

Regarding “p53 peptide, position 204, 9 amino acids”, the relative binding ratio with HLA-A*2401 (human) was 0.001.

“p53 peptide, position 117, 10 amino acids”: the relative binding ratio with HLA-A*2401 (human) came out at 0.0001.

Take p53 peptide, position 18, 9 amino acids: in the test with HLA-A*2401 (human), the relative binding ratio is 0.001.

The substance p53.273 (8-mer) (peptide) displayed a concentration for half-maximal inhibition (IC50) in the test with HLA-A*6801 (human) of 571 nM.

Regarding “p53 peptide, position 311, 10 amino acids”, the relative binding ratio with HLA-A*0301 (human) [1] came to 0.0035.

Turning to p53.240 (9-mer …) (peptide), the IC50 with HLA-A*0301 (human) [2] was determined as 550 nM.

Turning to p53.129 (9-mer) (peptide), in the test with HLA-A*0201 (human), the IC50 turned out to be 735 nM.

As to “p53 peptide, position 102, 10 amino acids”, the relative binding ratio with HLA-A*2401 (human) is 0.12.
